Measured values published in patent CN113929774A (INST MICROBIOLOGY CAS, dated 2022).

Molecular target: SARS-CoV-2野生型(WT)活病毒的S蛋白 (hCoV-19/China/CAS-B001/2020) (SARS-CoV-2, UniProt P0DTC2 14-1273)
Assay: cell-based or functional assay

B1: 9K抗体 (antibody, V domains shown)
VH: EVQLVESGGGVVQPGRSLGLSCAVSGFTFSSYAMHWVRQAPGKGLEWVALISNDGTIDSYADSVKGRFTISRDNSKNTLYLRMSSLRAEDTAVYYCARDKEQLVPTFDYWGQGTLVTVSS
VL: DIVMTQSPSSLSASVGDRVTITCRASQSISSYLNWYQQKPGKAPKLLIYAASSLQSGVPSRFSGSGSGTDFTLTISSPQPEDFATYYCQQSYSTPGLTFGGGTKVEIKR
  中和滴度(半抑制浓度，IC50), live virus CPE assay on Vero E6 cells: 49.4 µg/mL
